# Results reported in the supplement of paper PMC9170038.
# Tested on: MS2 coat protein
# Assay: apparent KD of MS2 coat protein; higher = weaker reporter binding
# Settings: Eterna round: R107
# In short: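 Each design's apparent KD comes from the median of binding-curve fits to its normalised clusters. Those clusters carried RNA switches transcribed on-chip from Illumina sequencing clusters. SNAP-549-labelled MS2 coat protein was titrated onto them in twofold steps (0.7 or 1.5 nM to 3 µM; per step 0.8–1.5 h down to 10–20 min). Conditions were 100 mM Tris-HCl pH 7.5, 80 mM KCl, 4 mM MgCl2, without or with constant ligand.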
# [1] = input ligand: theophylline 20 uM
# [2] = input ligand: tryptophan 2.4 mM
# [3] = input ligand: theophylline 2 mM
Sequence,apparent KD of MS2 coat protein (input ligand: arginine 13.2 mM),apparent KD of MS2 coat protein [1],apparent KD of MS2 coat protein [2],apparent KD of MS2 coat protein (input ligand: none),apparent KD of MS2 coat protein [3]
AGCUCAGAGAGUGAUACCAGACUACAUGAGGAUCACCCAUGUUACUUUUAAAUAUCAUGAGUCCCUUGGCAGCACAAGAAGAGCA [JR_ExcTheophyB_Sub016],40.1 nM,117 nM,73.2 nM,,
CUCGGUUGAUCCUAGCUGCCGAGAGGUGAUACCAGCAUCGAAAGAUGCCCUUGGCAGCACCAACAUGAGGAUCACCCAUGUAAUA [(MT)''-(M)'-(T')-(Theo)-(Ms2)_Design1/22_5],30.2 nM,156 nM,30.1 nM,,
"GCGUACGAUCGGGAUACCAGACAUUGCCGUUAGGGUGAACCUGAGGAACACCCAGGUUUUGUCCCUUGGCAGCCCGAUCGUACGC [ETB NP+V+V2 #8 Diff Apt, Same Structure]",20.6 nM,65.8 nM,27.5 nM,19.6 nM,136 nM
UUACAACUAAUGGAUACCAGCCGCGUGCUAGUGGUAGCAUACAUGAGGAUCACCCAUGUCGGCCCUUGGCAGCCACGCCCAUGCU [theeternabot_exclusion_MS2_Theo_B_2],13.7 nM,21.7 nM,14.2 nM,,
AAAGGUCGCAAUAAAUCUCCUACAUGUGAAGGAGCGCGCGAAAGCGCAGGUAGGUCGCACAUGAGGAUCACCCAUGUGAGCGACC [MAT - Exclusion Arginine A - Mod of Eli - D3],9.41 nM,14.5 nM,10.8 nM,11.5 nM,13.1 nM
AUGGAACAUGAGGAUCACCCAUGUGAUGAUACCAGAUUAACGCUUAUCCCUUGGCAGCAUGUCCGCCCUCAACCUGUGGCGUAUU [theeternabot_sameState_MS2_Theo_A_50],21.5 nM,36 nM,20.3 nM,,
AGCAGAUCCCAGCGAAAGCUGGGAUCUGCACGAGGACCGGUACGGCCGCCACUCGAGGACAUGAGGAUCACCCAUGUACCGGUCA [Glorfindel],174 nM,64.6 nM,78.3 nM,75.8 nM,238 nM
ACACCGAAAGGUGCAUUUACCUUAUCAGAUACCAGACUUUACGUUGUCCCUUGGCAGCUGUAUCACAUGAGGAUCACCCAUGUUG [JR_SSTheophyA_Sub011],19.3 nM,18.8 nM,16.6 nM,,
UCGUGUAUAUCGGAUACCAGUGAGAAGGAUACAUGAGGAUCACCCAUGUGAGUUGAUGUACACCCUUGGCAGCUGUAUAUAUCUA [.plullin],36 nM,62.7 nM,47.9 nM,,
UGUAUGUGAUCUGAUACCAGAGUGAAUAAACGCGAAAGCGCCUGAGGAUCACCCUGGUAACUCCCUUGGCAGCAGAUCGCAUACU,119 nM,789 nM,1390 nM,569 nM,74.5 nM
AUAACAUGAGGAUCACCCAUGUAUUGGUAACGAGGACCGGUACGGCCGCCACUCGAAUUUUGGUGGUAUAAUAUAUAUAUGAUUA [JR_SSTryptoA_Sub016],17.4 nM,25.4 nM,,,18.8 nM
AACAUACAAUAUUAGGUGGAUAUAAGGCGGCGAGGACCGGUACGGCCGCCACUCGCGUACAUGAGGAUCACCCAUGUCUGAAACU [Same State - Tryptophan A (Freestyle 4)],16.6 nM,26.8 nM,,,24.3 nM
AAUAUAAUAUAAAUAAUAAUAAUAUCUGAUACCAGACUCUCAUGUGUCCCUUGGCAGCAGUAACAUGAGGAUCACCCAUGUAAUA [JR_Nu_SSTheophyA_Sub027],33 nM,46.7 nM,52 nM,62.7 nM,16.2 nM
UUAUGCAGGUCGGCCGCCACUACACACAUGAGGAUCACCCAUGUAGUUACUGGGUGAAGUGGCAGUAGGACCGGGACCUGCAUAU [Brourdmod05],84.5 nM,449 nM,,,832 nM
AUCGUACCUGAUGAUACCAGCAUGUGCUCGUAACAUGAGGAUCACCCAUGUGAUCAGUAAUGCCCUUGGCAGCAUGAUCGGUACA [Same State - Theophylline B (Freestyle 17)],58.8 nM,46.9 nM,50.8 nM,,
AGUCGAAACUGAAGGAGCGAGAUGACAACAUUGGGUCUAACAUGAGGAUCACCCAUGUAAUCUCAGGUAGGUCGCAGUAACAAAA [Exclusion Arginine B GF 16],172 nM,165 nM,93.1 nM,78.7 nM,104 nM
UGACAGAUAACCGCUGGUGCUCUCGAGUUGCGAGGACCGGUACGGCCGCCACUCGACAACAUGAGGAUCACCCAUGUUGCGGGUC [Lareara],30.7 nM,108 nM,,,156 nM
GAGCUGAUGUAGAGCGAAUAUACGAGAGAUACCAGUACAGAAAUGUACCCUUGGCAGCUCAACUUUACAUGAGGAUCACCCAUGU [Ex Theophylline A 22],14.4 nM,15.2 nM,14.3 nM,,
